Experiments:
[1] = molecular target: T1, SARS-CoV-2 receptor-binding domain (RBD), S protein residues 319-539 (SARS-CoV-2, GenBank MN985325.1 …, UniProt P0DTC2); assay: ELISA
[2] = molecular target: T2, SARS-CoV RBD, residues 318-510 (SARS-CoV (GenBank AAP13441.1), UniProt P59594); assay: ELISA
[3] = molecular target: T3, BM-4831-CoV RBD, residues 310-530 (Bat coronavirus BM48-31/BGR/2008, strain); assay: ELISA
[4] = molecular target: T1, SARS-CoV-2 receptor-binding domain …; assay: cryo-EM structure
[5] = molecular target: SHC014-CoV RBD, residues 307-524 (Bat SARS-like coronavirus RsSHC014, UniProt U5WLK5, strain); assay: ELISA
[6] = molecular target: Rf1-CoV RBD, residues 310-515 (Bat SARS CoV Rf1/2004, UniProt Q0QDZ0, strain); assay: ELISA
[7] = molecular target: Shaanxi2011-CoV RBD, residues 321-502 (Bat coronavirus Rp/Shaanxi2011, UniProt R9QTA0, strain); assay: ELISA
[8] = molecular target: Rs7327-CoV RBD, residues 319-518 (Bat SARS-like coronavirus Rs7327, UniProt A0A2D1PXC0, strain); assay: ELISA
[9] = molecular target: pangolin17-CoV RBD, residues 317-539 (Pangolin coronavirus (pangolin17), strain); assay: ELISA
[10] = molecular target: Rs4081-CoV RBD, residues 310-515 (Bat SARS-like coronavirus Rs4081, UniProt A0A2D1PX44, strain); assay: ELISA
[11] = molecular target: ZC45-CoV RBD, residues 327-509 (Bat SARS-like coronavirus ZC45, UniProt A0A2R3SUW7, strain); assay: ELISA
[12] = molecular target: HKU3-1-CoV RBD, residues 322-505 (Bat coronavirus HKU3, isolate HKU3-1, UniProt Q3LZX1, strain); assay: ELISA
[13] = molecular target: RaTG13-CoV RBD, residues 319-541 (Bat coronavirus RaTG13, UniProt A0ABF7PLN6, strain); assay: ELISA
[14] = molecular target: W1V1-CoV RBD, residues 307-528 (Bat SARS-like coronavirus WIV1 (printed …, UniProt U5WI05)); assay: ELISA
[15] = molecular target: Rs4092-CoV RBD, residues 314-496 (Bat SARS-like coronavirus Rs4092, UniProt A0A2D1PX37, strain); assay: ELISA
[16] = molecular target: YN2013-CoV RBD, residues 314-496 (BtRs-BetaCoV/YN2013, UniProt A0A0U1WJY8, strain); assay: ELISA
[17] = molecular target: Yun11-CoV RBD, residues 310-515 (Bat coronavirus Cp/Yunnan2011, UniProt R9QTH3); assay: ELISA
[18] = molecular target: Rp3-CoV RBD, residues 322-504 (Bat coronavirus Rp3/2004, UniProt Q3I5J5); assay: ELISA
[19] = molecular target: BtkY72-CoV RBD, residues 309-530 (Bat sarbecovirus BtKY72, UniProt A0A3Q8AKM0); assay: ELISA
[20] = molecular target: T1, SARS-CoV-2 receptor-binding domain …; assay: SPR
[21] = molecular target: T2, SARS-CoV RBD, residues 318-510; assay: SPR
[22] = molecular target: T3, BM-4831-CoV RBD, residues 310-530; assay: SPR
[23] = molecular target: SARS-CoV-2 spike receptor-binding domain (RBD) used in the crystallographic study (SARS-CoV-2, UniProt P0DTC2); assay: crystal structure

B1: psNb 1-23 (VHH)
VHH: QVQLVESGGGLVQAGGSLRLSCAASGRTDSISDMGWFRQAPGKEREFVAVVGWSGGGTDYAHSVKGRFTISRDNAKNTVYLQMNSLKPEDTAVYYCAVGSLRVGSFSVEYWGQGTQVTVSS
[1]
  binding result: binds
[2]
  binding result: binds
[3]
  binding result: binds

B2: psNb 2-62 (VHH)
VHH: QVQLVESGGGLVQAGGSLRLSCAASGRTFSTYAMAWFRQAPGKEREFVAGVARSADTTYYGDSVKGRFTISRDNAKNEVNLQMSSLKPEDTAVYYCAARSVIQYGIVPGNDFHYEYWGQGTQVTVSS
[4]
  binding result: binds

B3: psNb 2-34 (VHH)
VHH: HVQLVESGGGLVQAGGSLRLSCAASGRTFSRYAAGWFRQAPGKEREFVAVIEWDGDSAYYADPVKGRFTISRDNAKNTVYLQMNRLKPEDTAVYICAVGGNHYSRSKYYNLDEYDDWGQGTQVTVSS
[5]
  binding result: binds
[6]
  binding result: binds
[7]
  binding result: binds
[1]
  binding result: binds
[8]
  binding result: binds
[2]
  binding result: binds
[9]
  binding result: binds
[10]
  binding result: binds
[11]
  binding result: binds
[12]
  binding result: binds
[13]
  binding result: binds
[14]
  binding result: binds
[15]
  binding result: binds
[16]
  binding result: binds
[17]
  binding result: binds
[18]
  binding result: binds
[19]
  binding result: binds
[3]
  binding result: binds

B4: psNb 2-10 (VHH)
VHH: QVQLVESGGGLVQPGGSLRLSCAASGFTFNRYAMSWVRQAPGKGREWVSGIYSDGSETYYTESVKGRFTISRDNAKNMLYLQMNSLKPEDTALYYCAKDENAHEDYFNSGFDRKYDYWGQGTQVTVSS
[4]
  binding result: binds

B5: psNb 2-38 (VHH)
VHH: QVQLVESGGGLVQAGGSLRLSCAAAARFSTSAMGWFRQAPGKEREFVAAISWSNTNTHYADTVKGRFTISADTAKETVDLQMNSLKPEDTAVYYCVQGGWGIRQPIIVDYWGKGTQVTVSS
[1]
  binding result: binds
[2]
  binding result: binds
[3]
  binding result: binds

B6: psNb 1-25 (VHH)
VHH: HVQLVESGGGLVQAGGSLRLSCATSGRTFSTYRMSWFRQAPGKEREFVATIIWSVGSTHYADSVKGRFTISRDNAKNMVYLQMNSLKPEDTAVYYCAAQRSDSSSWGYEDDYDYWGQGTQVTVSS
[4]
  binding result: binds

B7: psNb 1-22 (VHH)
VHH: HVQLVESGGGLVQPGGSLRLSCAASGRSFNSYLMGWFRQAPGKEREFVAWISGSPHDIIRYRDSVKDRFTISRDNAKNTVYLQMNSLKPVDTAVYYCAVGSLRVGSFSPDYWGQGTQVTVSS
[1]
  binding result: binds
[2]
  binding result: binds
[3]
  binding result: binds

B8: psNb 2-65 (VHH)
VHH: HVQLVESGGGLVQAGGSLRLSCAASGTISTLNAMGWYRQAPGKQRELLASISNLGTTYHADSVAGRFTISRGSAKNTVNLQMNSLKPDDTAVYYCNTRVLEGGTQIRDYWGQGTQVTVSS
[1]
  binding result: binds
[3]
  binding result: binds

B9: psNb 2-45 (VHH)
VHH: QVQLVESGGGLVQAGGSLRLSCTASGYDFSILAIAWYRQAPGKERELVAAISRVGSTDYADSVKGRFTISRDNTKNTVSLQMDSLKPEDTAVYYCNAGIPMTTVLSGLGFWGQGTQVTVSS
[20]
  Kd: 0.39 nM
[21]
  Kd: 304 nM
[22]
  Kd: 0.044 nM
[5]
  binding result: binds
[6]
  binding result: binds
[7]
  binding result: binds
[8]
  binding result: binds
[9]
  binding result: binds
[10]
  binding result: binds
[11]
  binding result: binds
[12]
  binding result: binds
[13]
  binding result: binds
[14]
  binding result: binds
[15]
  binding result: binds
[16]
  binding result: binds
[17]
  binding result: binds
[18]
  binding result: binds
[19]
  binding result: binds

B10: psNb 2-31 (VHH)
VHH: QVQLVESGGGLVQAGESLRLSCAASKPTFRNFAAGWFRQTPGKDREFVAVIEYDGDSAYYADSVKGRFTISRDNAKNTVYLQMNRLKPGDTAVYICAIGGNHYDPSKYYTADEYDYWGQGTQVTVSS
[20]
  Kd: < 0.001 nM
[21]
  Kd: 0.00396 nM
[22]
  Kd: 3.6 nM
[5]
  binding result: binds
[6]
  binding result: binds
[7]
  binding result: binds
[8]
  binding result: binds
[9]
  binding result: binds
[10]
  binding result: binds
[11]
  binding result: binds
[12]
  binding result: binds
[13]
  binding result: binds
[14]
  binding result: binds
[15]
  binding result: binds
[16]
  binding result: binds
[17]
  binding result: binds
[18]
  binding result: binds
[19]
  binding result: binds

B11: psNb 1-21 (VHH)
VHH: HVQLVESGGGLVQAGGSLRLSCAAPGRTFSTSAMGWFRQAPGKEREFVAAIDWSNTNIHYADTVKGRFTISTDTAKNTVYLQMNNLKPEDTAVYYCAQGGWGLTQPISVDYWGKGTQVTVSS
[1]
  binding result: binds
[2]
  binding result: binds
[23]
  binding result: binds

B12: psNb 2-67 (VHH)
VHH: EVQLVESGGGLVQTGGSLRLSCALSGYTFSIFPTAWFRQAPGKEREFVAGIRWNGSTRDYTEYADFVKGRFTISRDNAKNMVYLQMISLKPEDTALYYCAASDGVIDGTNANAYRYWGQGTQVTVSS
[4]
  binding result: binds

Source: article doi:10.1101/2021.12.26.474192 (bioRxiv, 2021)
